# Variants at the floor of the assay were thinned out.
# Tests used:
# [1] = test system: biotinyl-Trp-oxazolone; experiment: self-aminoacylation, catalytic enhancement (BWO) (fold over background); higher = more active; k-Seq, kA / k0A0; sequences stand for … in GGGAAUGGAUCCACAUCUACGAAUUC…UUCACUGCAGACUUGACGAAGCUG
# Summary of the method: (§1)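 Mutagenized RNA pools with a 21-nt variable region (0.43 μM) reacted with each biotinyl-aminoacyl-oxazolone at 2–1250 μM. Reactions ran in 50 μL HEPES/NaCl/KCl/MgCl2/CaCl2 buffer with 5% acetonitrile, pH 6.9–7.0, for 90 minutes at room temperature. Streptavidin-captured RNA was quantified by triplicate qPCR and Illumina sequencing, and per-sequence fraction reacted was fit to a pseudo-first-order model with 1000 bootstraps. Catalytic enhancement is median kA divided by the uncatalyzed rate, the low-activity peak of a bimodal Gaussian fit.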
# [2] = test system: biotinyl-Leu-oxazolone; experiment: self-aminoacylation, catalytic enhancement (BLO) (fold over background); higher = more active; k-Seq, kA / k0A0; sequences stand for … in GGGAAUGGAUCCACAUCUACGAAUUC…UUCACUGCAGACUUGACGAAGCUG
# Summary of the method: as §1
# [3] = test system: biotinyl-Phe-oxazolone; experiment: self-aminoacylation, catalytic enhancement (BFO) (fold over background); higher = more active; k-Seq, kA / k0A0; sequences stand for … in GGGAAUGGAUCCACAUCUACGAAUUC…UUCACUGCAGACUUGACGAAGCUG
# Summary of the method: as §1
# [4] = test system: biotinyl-Val-oxazolone; experiment: self-aminoacylation, catalytic enhancement (BVO) (fold over background); higher = more active; k-Seq, kA / k0A0; sequences stand for … in GGGAAUGGAUCCACAUCUACGAAUUC…UUCACUGCAGACUUGACGAAGCUG
# Summary of the method: as §1
# [5] = test system: biotinyl-Ile-oxazolone; experiment: self-aminoacylation, catalytic enhancement (BIO) (fold over background); higher = more active; k-Seq, kA / k0A0; sequences stand for … in GGGAAUGGAUCCACAUCUACGAAUUC…UUCACUGCAGACUUGACGAAGCUG
# Summary of the method: as §1
# [6] = test system: biotinyl-Met-oxazolone; experiment: self-aminoacylation, catalytic enhancement (BMO) (fold over background); higher = more active; k-Seq, kA / k0A0; sequences stand for … in GGGAAUGGAUCCACAUCUACGAAUUC…UUCACUGCAGACUUGACGAAGCUG
# Summary of the method: as §1
Sequence,self-aminoacylation [1],self-aminoacylation [2],self-aminoacylation [3],self-aminoacylation [4],self-aminoacylation [5],self-aminoacylation [6]
UUUCAUCUAGGUCAUCGGGUG [Fam2.2 aminoacylation ribozyme variant],6.47,6.45,33.7,4.51,4.37,5.04
UUUCCCCUGGUCAUCGAGUGA [Fam2.1 aminoacylation ribozyme variant],7.7,5.44,39.1,3.87,3.26,6.12
UUUCUCCUAGGUCAUCGGGUG [Fam2.2 aminoacylation ribozyme variant],8.02,9.78,32.5,5.4,5.35,7.74

# Reference: the supplement of paper PMC9233669
